# Laboratory results from IntAct's records for PubMed 11356864.
# B1: Syndecan-2 (Rattus norvegicus (Rat)), P34900 (parent)
# chain: MQRAWILLTLGLMACVSAETRAELTSDKDMYLDSSSIEEASGLYPIDDDDYSSASGSGAYEDKGSPDLTTSQLIPRISLTSAAPEVETMTLKTQSITPTQTESPEETDKKEFEISEAEEKQDPAVKSTDVYTEKHSDNLFKRTEVLAAVIAGGVIGFLFAIFLILLLVYRMRKKDEGSYDLGERKPSSAAYQKAPTKEFYA
# Variants of: B1
# Conditions: with nf1_human NF1, P21359
# nf1_human NF1, P21359, sequence (P21359 whole entry): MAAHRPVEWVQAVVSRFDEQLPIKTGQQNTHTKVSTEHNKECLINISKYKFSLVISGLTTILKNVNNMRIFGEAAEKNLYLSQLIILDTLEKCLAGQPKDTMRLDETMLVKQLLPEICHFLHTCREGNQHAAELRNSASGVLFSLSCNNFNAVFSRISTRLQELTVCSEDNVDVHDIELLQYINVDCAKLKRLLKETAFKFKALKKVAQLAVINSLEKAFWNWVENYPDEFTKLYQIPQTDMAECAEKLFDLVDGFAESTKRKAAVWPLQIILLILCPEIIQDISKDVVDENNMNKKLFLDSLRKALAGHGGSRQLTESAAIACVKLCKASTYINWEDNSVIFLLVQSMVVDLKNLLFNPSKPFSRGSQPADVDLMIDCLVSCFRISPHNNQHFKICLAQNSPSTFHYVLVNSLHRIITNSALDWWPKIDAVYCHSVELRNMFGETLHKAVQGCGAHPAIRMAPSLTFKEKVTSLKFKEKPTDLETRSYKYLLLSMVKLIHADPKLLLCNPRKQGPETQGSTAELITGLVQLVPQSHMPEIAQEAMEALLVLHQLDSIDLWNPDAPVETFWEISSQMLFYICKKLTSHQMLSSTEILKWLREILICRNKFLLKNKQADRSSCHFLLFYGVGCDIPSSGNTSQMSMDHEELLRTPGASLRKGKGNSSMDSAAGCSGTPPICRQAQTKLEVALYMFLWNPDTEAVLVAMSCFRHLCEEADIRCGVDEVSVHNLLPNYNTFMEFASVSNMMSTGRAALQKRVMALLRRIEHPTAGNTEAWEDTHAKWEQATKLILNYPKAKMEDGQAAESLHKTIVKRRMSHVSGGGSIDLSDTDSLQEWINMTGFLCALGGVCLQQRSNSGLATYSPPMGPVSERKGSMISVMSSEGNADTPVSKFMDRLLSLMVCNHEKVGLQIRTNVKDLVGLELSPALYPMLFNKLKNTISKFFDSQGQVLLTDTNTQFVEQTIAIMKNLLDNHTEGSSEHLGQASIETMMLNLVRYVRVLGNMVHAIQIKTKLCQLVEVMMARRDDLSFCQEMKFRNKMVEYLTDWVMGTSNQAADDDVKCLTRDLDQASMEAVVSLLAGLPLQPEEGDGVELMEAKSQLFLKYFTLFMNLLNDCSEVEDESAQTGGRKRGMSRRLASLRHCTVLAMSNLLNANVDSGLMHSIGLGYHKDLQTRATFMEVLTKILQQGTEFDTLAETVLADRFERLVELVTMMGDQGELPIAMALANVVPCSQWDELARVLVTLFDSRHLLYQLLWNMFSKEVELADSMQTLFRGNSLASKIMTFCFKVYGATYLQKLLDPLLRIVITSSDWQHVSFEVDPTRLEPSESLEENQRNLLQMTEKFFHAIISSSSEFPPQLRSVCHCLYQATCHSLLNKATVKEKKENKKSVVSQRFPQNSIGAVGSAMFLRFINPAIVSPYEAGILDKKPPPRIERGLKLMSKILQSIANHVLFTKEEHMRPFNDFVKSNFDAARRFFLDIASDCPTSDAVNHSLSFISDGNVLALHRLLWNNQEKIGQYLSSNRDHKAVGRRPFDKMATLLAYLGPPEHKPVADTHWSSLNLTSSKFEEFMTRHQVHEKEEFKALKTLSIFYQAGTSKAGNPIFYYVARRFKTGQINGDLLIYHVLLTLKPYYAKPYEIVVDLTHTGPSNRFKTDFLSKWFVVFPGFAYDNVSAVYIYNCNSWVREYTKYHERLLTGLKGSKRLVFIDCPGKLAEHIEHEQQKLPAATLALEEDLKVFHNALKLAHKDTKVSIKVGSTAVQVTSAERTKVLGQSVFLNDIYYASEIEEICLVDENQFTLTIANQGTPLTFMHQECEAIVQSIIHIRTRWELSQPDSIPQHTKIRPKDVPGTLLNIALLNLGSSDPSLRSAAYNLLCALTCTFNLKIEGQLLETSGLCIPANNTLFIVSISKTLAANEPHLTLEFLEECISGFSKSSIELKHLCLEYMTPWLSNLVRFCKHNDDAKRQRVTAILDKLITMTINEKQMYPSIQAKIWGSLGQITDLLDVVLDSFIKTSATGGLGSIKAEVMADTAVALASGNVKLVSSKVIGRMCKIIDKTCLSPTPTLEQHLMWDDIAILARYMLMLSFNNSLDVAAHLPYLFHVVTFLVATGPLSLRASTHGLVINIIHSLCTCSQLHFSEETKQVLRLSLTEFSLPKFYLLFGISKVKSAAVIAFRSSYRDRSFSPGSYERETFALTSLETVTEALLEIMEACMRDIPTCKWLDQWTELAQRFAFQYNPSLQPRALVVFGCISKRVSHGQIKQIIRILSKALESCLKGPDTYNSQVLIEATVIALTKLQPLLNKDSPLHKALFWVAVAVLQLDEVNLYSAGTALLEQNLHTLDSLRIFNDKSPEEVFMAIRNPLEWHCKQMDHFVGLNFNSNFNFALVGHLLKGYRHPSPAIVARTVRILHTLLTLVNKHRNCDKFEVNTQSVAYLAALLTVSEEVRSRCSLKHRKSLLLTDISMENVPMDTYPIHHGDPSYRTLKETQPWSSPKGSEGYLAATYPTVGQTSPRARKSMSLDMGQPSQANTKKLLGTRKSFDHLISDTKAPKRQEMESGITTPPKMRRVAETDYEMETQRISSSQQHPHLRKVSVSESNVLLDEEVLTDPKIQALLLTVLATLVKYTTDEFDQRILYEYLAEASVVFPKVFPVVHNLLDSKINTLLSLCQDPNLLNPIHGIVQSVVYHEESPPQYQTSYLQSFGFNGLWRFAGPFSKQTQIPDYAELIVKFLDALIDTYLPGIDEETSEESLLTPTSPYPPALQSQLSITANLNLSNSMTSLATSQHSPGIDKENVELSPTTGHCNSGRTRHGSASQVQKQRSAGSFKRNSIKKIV
row,Variant,effect of a mutation on the interaction
1,MQRAWILLTLGLMACVSAETRAELTSDKDMYLDSSSIEEASGLYPIDDDDYSSASGSGAYEDKGSPDLTTSQLIPRISLTSAAPEVETMTLKTQSITPTQTESPEETDKKEFEISEAEEKQDPAVKSTDVYTEKHSDNLFKRTEVLAAVIAGGVIGFLFAIFLILLLVYRMRKAAEGSYDLGERKPSSAAYQKAPTKEFYA [K174A;D175A],decreasing interaction
2,MQRAWILLTLGLMACVSAETRAELTSDKDMYLDSSSIEEASGLYPIDDDDYSSASGSGAYEDKGSPDLTTSQLIPRISLTSAAPEVETMTLKTQSITPTQTESPEETDKKEFEISEAEEKQDPAVKSTDVYTEKHSDNLFKRTEVLAAVIAGGVIGFLFAIFLILLLVYRMRKKDAASYDLGERKPSSAAYQKAPTKEFYA [E176A;G177A],decreasing interaction
3,MQRAWILLTLGLMACVSAETRAELTSDKDMYLDSSSIEEASGLYPIDDDDYSSASGSGAYEDKGSPDLTTSQLIPRISLTSAAPEVETMTLKTQSITPTQTESPEETDKKEFEISEAEEKQDPAVKSTDVYTEKHSDNLFKRTEVLAAVIAGGVIGFLFAIFLILLLVYRMAAKDEGSYDLGERKPSSAAYQKAPTKEFYA [R172A;K173A],decreasing interaction
4,MQRAWILLTLGLMACVSAETRAELTSDKDMYLDSSSIEEASGLYPIDDDDYSSASGSGAYEDKGSPDLTTSQLIPRISLTSAAPEVETMTLKTQSITPTQTESPEETDKKEFEISEAEEKQDPAVKSTDVYTEKHSDNLFKRTEVLAAVIAGGVIGFLFAIFLILLLVYRMRKKDEGAADLGERKPSSAAYQKAPTKEFYA [S178A;Y179A],increasing interaction

# Variants of: B1
# Conditions: with nf1_human NF1, P21359
# Remark: another data set of the same source
row,Variant,effect of a mutation on the interaction
1,MQRAWILLTLGLMACVSAETRAELTSDKDMYLDSSSIEEASGLYPIDDDDYSSASGSGAYEDKGSPDLTTSQLIPRISLTSAAPEVETMTLKTQSITPTQTESPEETDKKEFEISEAEEKQDPAVKSTDVYTEKHSDNLFKRTEVLAAVIAGGVIGFLFAIFLILLLVYRMRKKDEGAADLGERKPSSAAYQKAPTKEFYA [S178A;Y179A],decreasing interaction
